Results taken from patent US7125541.

How the values were obtained:
human endoglin (human) [1] = molecular target: human endoglin (human) (UniProt P17813); experiment: competitive binding inhibition on HUVEC by FACS; unlabelled TEC-4 against competitor biotinylated TEC-11, ratio 1:100
human endoglin (human) [2] = molecular target: human endoglin (human) (UniProt P17813); experiment: competitive binding inhibition on HUVEC by FACS; unlabelled TEC-4 against competitor biotinylated TEC-11, ratio 1:1
human endoglin (human) [3] = molecular target: human endoglin (human) (UniProt P17813); experiment: competitive binding inhibition on HUVEC by FACS; unlabelled TEC-11 against competitor biotinylated TEC-4, ratio 1:1

Substance	percent blocking of biotinylated antibody (human endoglin (human) [1]) [%]	percent blocking of biotinylated antibody (human endoglin (human) [2]) [%]	percent blocking of biotinylated antibody (human endoglin (human) [3]) [%]
TEC-4 (tumor endothelial cell antibody 4)	20	1	–
TEC-11 (tumor endothelial cell antibody 11)	–	–	51
